B1: 83 (protein)
chain: NKNLKCNFYYNNNNLATYVIKHNRFLSEYQSNFLGGGYSAALKLVNSKKSGTNVNTKYNSENTNTNNNIPESSSTYTNTRLAANNAATTSTTKVTDNNKANIKLTGNNAATINTNSAENTAATKKVTENVITNQILTGNNNAATNTATTEHNNNINTNTNSAENTAATKKVTENVITNQILTGNNNAATNTATTEHNNNINTNTNSADNSNTNTNLADNTATTKKLTDNINTAQNLATSTNTATVSTDNNNINTKPIDNNNADIKSTDNYNTGTKETDNKNTDIKATDNNNIATTTDNTNTNVISTDNSKTNVISTDNSKTNTISTDNDNADTILTDNDNNADIILTDNNNADTISTDNDNADTKATDNNNNANTKATDNNNAKIISPDNNNAKTTSTDNNNNANTKATDNNNAKTISNDNNNAKTISTDNNNAKTISNDNNNANTISTDNNNNNANQYVFANNYNEATSDDELNKDSCDYSEEKENIKSMINAYLDKLDLETVRKIHSDISTCIEKKNNPRNQITHLNNLKNMYNIIKFIVVIYIAFNWAEVIYKYVGKLILAFALYMLIN
modifications: bait human Fc-tagged dimer
B2: 74 (protein)
chain: YNLNNDLSKNNNFALNTYVRKDDVEDDSKNEIVDNIQKMVDDFSDDIGFVKTSMREVLLDTEASLEEVSDHVVQNIAKYSLTIEEKLNLFDGLLEEFIENNKGLISNLAKRQQKLKGDKIKKVCDLILKKLKKLENVNKLIKYKIILKYGNKDNKKEMIQTLKNEEGLSDDFKNNLANYETEQNNDDIKEIELVNFISTNYDKFVVNLEDLNKELLKDLNMALS
modifications: bait human Fc-tagged dimer
B3: 24 (protein)
chain: FKGNYGEANFAFFQATPASHIEEPQKTESTDAQSNIAQNEEINNAKPLQENIANNQQNSNEQQNNNEQQNNIEQQNNNIQQNNIDTSISHVPNDAIKNPIDNSNIANLDKSNDANNVIKHEENNQAKENNLETIKHTEPLTNQNTNEVKINDHNEHEKNTEENKIEEQYNNINHHSHDINKNQAINNNMNNENADKNVPHLDQSAMSNEKHINEHTTNHPIESHTGENNHDKINEPIPIEHATTPTNEPIPIEHAATPTNEPIPIEHAATPTNEPIHIEHVATPANEPTHSEHATTTTNEPIHIEHAATPTNEHIHNEHATTTTNEPTHNEHAATITHEPTHNEHTTTPTNEPIHNEHATTPTNEPIPIEHIATPANEPTHNEHATTTTNEPTHNEHTTTPTNEPIHNEHATTPTNEPIPIEHIATPANEPTHNEHATTTTNEPTHNEHATTTTNEPTHNEHATTTTNEPIHNEHATATTNEATHNEHATTTTNEPTHNEHSTTPTNEATHSENAATSTNEQHSHDQNTEVHPNDKLALVPFQGIKNPIPSNEAQPIISFPNEDDNHAQNEGSINAPSEGEHNNADNKEGPIITPLEGEQAGTAHKEDVTHKHMVGEHVPPQKTHHGPIITPVGGNHVPPQTHHAHIITPVGGEHAHGQGNNDATYVTMNTDESSSSDTKGEHSNLRSYNKNMNNNHAQRDQYDSDTLNSEGSDDAYSSMQQNFEKNGIDSFKGKGLHVSLRERIIIEIMESAKNGIDGLLKLKDSKDSGKLFMEALEKLNINMKDLKKDKNLISLEVYDKILSTMFKILTEMSFYEDSKFYETLGIKKDILNQALKDIKIKMLRKLGVSYSRLPPIIKHTEGKCAIKDIIISISSKELAQRMAIMFTKWLAPDEYGAVVDYENNVELNVLCSGAPILIQQWKYYQNMLGFEEDKDHAYLGLIDELLVMNKRYSQNKDYVETLEKIKKSKVFKHCTKIMRIGGKVSSVPFNYENVKKPSSSIIGSLGNLIKANIATYYKATAQRINSYFHYTEKKSKKSSPLKIISVCTLLHLTDMLYKCSDENSNGVMDLYNLQLNTLNMKGKMVLQYLVHLKFLTQEKKNQLKEICEPQNGLIDETLTKMLILLSTDSHELLSHELENKGFDEDYIQDEIKNINEADNNIRDKEEDDAEKMIFDDL
modifications: bait human Fc-tagged dimer
B4: 19 (protein)
chain: KNSDTKNNAYNDYYNTYLSKIHSFKAPFNVENLENGWNVDYSSVSTNKHVVLIPSIYNRRGVLYNKNPINSDNFIIEFNFFMERKYYKEKIDEKYYKDEKNDVHEIVYKTNSDDNLATSNKANNKEQKQIKRNGFALWILKDPFVIKEAGSNVNLVLQEEEYNIFGYKNRFNGIGILFQLKKSTNKANNKANNNNNYYYYNNYNDILNVAIILNNGDKSINSDDFTIFKNIPIDMIMINNLIHTKIICNKKEIIIAFYYPKSNNYINTLIMKNNIATENYIAFTSFNYKEDDNKNIDYNDVNNKYYENQNGYLPTFVGIKQVLTFNLNNNNNNNNNININEANINNNNYNNNNNNDNNKINYDQNYNKDISANDINAAFNDVLNNINPEKNTINQAIDVLNSITKLLQKFMNHQINSEKKLLQNINILNEKLQFVQTELKVIKKNLANQAEEPKNLQKMFSTELTGLKNLFHTHTQHHKKNIEDITNKLTKKIERNNELKILTEKAQKLEQIINK
modifications: bait human Fc-tagged dimer
B5: 7 (protein)
chain: GIISGRINIAAEFHINIFVKDYFKKKKLTFVNFVSLCPKGFNIENNKCIPCPIGLYYSNSKSINQCIPCENYRKHSTTLYNSAKSKTECLCKPGYFLKDKRCVKCVAGFYKDQIGNFKCQGTCENTKMSIEVGAKNYEELKCTCKDGYFTEKKKKECIPCPFGNYCIYNPKVKYKADIIRCKNNKLTLHRGSKSPNDCLCSQGYYHDYKMDECELCNYDQYKSHISNDPCVPFISKSLVNQEYLINEPYFQYTNIYIKQTSNIIFAPKKGSKMFHEATLCETGYSYSMNKAICSICRYNNYCLGLDHSSIICPKNSITIKLKSVSALDCLCIKGYGRIIINTNQAFTISCIPCPYNTFQPHHSYGKCIPCPPHTFTKITGATSITECIPKMGYYNIAFEYIYEYSKQQMLNSIPHFIQYYHYFLKNQYEHFA
modifications: bait human Fc-tagged dimer
B6: 21 (protein)
chain: SPGNDNNNVNNDGVVHVLSKNIDVKNLQGTFYEIATNAADKIFPGLACRCTKYEFSGLKRDGNLGYVLINFACARNFIFGEKKSEMTFKLILNKPLDENTATVEEFNAAIYLVQGNQQILLNGNINIIYAELNEQNEFEHLILGGQKSIEPMIIMSKYRTVLLDTYNKLINSLYLAGYEPSLLTWPFIIQTDQTFCD
modifications: bait human Fc-tagged dimer
B7: 22 (protein)
chain: RGNQISKCVFYDKRNKDLKQVFYVPTNDVNMYKETIRKLLSREISLLEEPLNENSDSHNMANKKNVANFEEIKKNDENNNRKRKEMEEKLKYIEKYRNYAKGVLKNVEFKCENVDDLKSKVKCNLCVYTEIVNNKHIRQGQIIQIFMNECMYGFYYYDNINQYTQNNEYNNKALKDYNSAQKLDDIYFNIAKDISEGNVNGINFFKQQSSKYHPVCYVTE
modifications: bait human Fc-tagged dimer
B8: 26 (protein)
chain: KCIRLNNRAIYKNKYKNNVHIGTNENIRSIEKYSNVLCNSILCKNDKISSFINQRKNVDDDDESENDDMYESTTAGSSSETDNEADEEENDASDNNNADEEQIENSNNNNADEEQNDASSNDNNDEENEEQDDVMDNDQNDKKIKHSFNLANEAKHTKEERVKEEKKLKIYDFINDKEKRLNFNGDQKDEDNEENDDKDENTLENRNIISKHTSVFPGLYFIGIGYNLLFGNPLGEADSLIDPGYRAQIYLMEWALSKEGIANDLSTLQPVNGWIRKENACSRVESITECSSISDYTKSLSAEAKVSGSYWGIASFSASTGYSSFLHEVTKRSKKTFLVKSNCVKYTIGLPPYIPWDKTTAYKNAVNELPAVFTGLDKESECPSDVYEENKAKSNCENVALWMKFFDIYGTHIIYESQLGGKITKIINVATSSIEQMKKNGVSVKAKIQAQFGFGSAGGSTDVNSANSAANDEQSYDMNEQLIVIGGNPIKDVTKEENLFEWSKTVTNHPMPINIKLTPISDSFDSDDLKESYDKAIIYYSRLYGLSPHDTMQKDDKDIIKILTNADTVTKNSAPPINAQCPHGKVVMFGFSLKQNFWDNTNALKGYNIEVCEAGSNSCTSKQGSSNKYDTSYLYMECGDQPLPFSEQVISESTSTYNTVKCPNDYSILLGFGISSSSGRINSAEYVYSTPCIPGMKSCSLNMNNDNQKSYIYVLCVDTTIWSGVNNLALVALDGAHGKVNRAKKYSDGELVGTCPLDGTVLTGFKVEFHTSSPYVQTPFEKCAKSLKACSVHGSGHAIGIQNFKSLFIYMLCKNNK
modifications: bait human Fc-tagged dimer
B9: 30 (protein)
chain: QDNKNKVEETHEEQGEMTQEEKDEIYSEFVDYDLNKDGLIDAEEIVVTLKNMKKADFINFFNKVDLDSSGTISIDEYMLFINSN
modifications: bait human Fc-tagged dimer
B10: 13 (protein)
chain: YLSSENQKKTIATVHNNARTNTLKKNNANNNNANDIFGLSPSEVPNLIDDEEEYEILEGVKNNADLTRSTNIDHPSPSSTMIDLDNIITEISKLKKKKLKKEMNNKLEQQTNQNNNAIHHNNENEINTFTQNIKTNSNELKNQDSSNSLISTNSNTMDELLLYSTNSEDNLDISFGELQLYENSDEDTSDYEYVNEDYSVNHIFSNDAEESFNILEDVENIALSSSNRYQYSPIGPYKKKHTKVFENFKMTRNYDEFLKLYNLKDSSDNQEEYYELLAGEPFKLNSYYYRDVKYENVKKYIFKEIYDNIQNIATENKIIVSKKEELFFYFIKSLLKNNFICLSYEEEENLLSESKLLLEAMISKKIQ
modifications: bait human Fc-tagged dimer
B11: 85 (protein)
chain: VKERNNGFPKRGEGRYLFGRNQMKSQDIEKNNKELSNKMDTQDSKQYITYLYHSSICQYCSKVTSMLENNDNVEIIKFKENNKIEDFGKFTKPIVVLLKNINKENSLERSIFYEELKRKGKKVQVPALEVNNIILFESDEIIKFYKKLLQKVSNDDKSSLQNRGNIKNDQKKNNADYDNDYDNDDNNDDNDDDDDNNYNNNNDDGYDYHTS
modifications: bait human Fc-tagged dimer
B12: 2 (protein)
chain: DFFLRYRTGFIRSRLETYIGNSDVRYNKAFINNRLLNEHAHCDAWSEWSACSKTCDYGIKIRVKISTDQTKSKACSNIAESTICHEHICPRTFEEAEETYLHNKEKEKKKKFRTT
modifications: bait human Fc-tagged dimer

The results in this text go back to PMC11098746 (2024).

The target in this test is FGFR4 ectodomain (Homo sapiens, UniProt P22455). Nature of the test: AVEXIS normalised luminescence.
As to B1, the binding score is 1.24.

Take B2: the binding score is 1.05.

The molecule B3 returned a binding score of 1.

In the case of B4, the binding score turned out to be 1.47.

In turn, B5 displayed a binding score of 0.976.

As to B6, the binding score came to 1.31.

Take B7: the binding score was determined as 0.879.

As for B8, the binding score is 0.914.

The molecule B9 showed a binding score of 1.55.

Molecule B10 returned a binding score of 1.16.

B11 displayed a binding score of 1.22.

In turn, B12 displayed a binding score of 1.02.
